For assay [1], the target named is T1, CD138 on the cell surface (human, UniProt P18827 23-310).
T1 sequence (looked up): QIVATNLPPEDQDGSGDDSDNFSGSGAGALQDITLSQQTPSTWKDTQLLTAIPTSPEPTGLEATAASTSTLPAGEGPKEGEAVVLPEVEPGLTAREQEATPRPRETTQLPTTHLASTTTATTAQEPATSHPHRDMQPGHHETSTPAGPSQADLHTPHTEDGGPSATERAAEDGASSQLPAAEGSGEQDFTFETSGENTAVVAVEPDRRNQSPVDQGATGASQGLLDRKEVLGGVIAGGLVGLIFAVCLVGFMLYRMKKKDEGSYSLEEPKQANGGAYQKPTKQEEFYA
In words: cell-based or functional assay.

In assay [2] the target is T1, CD138 on the cell surface. In words: FACS on CD138+ OPM-2 cells, fluorescence-labelled secondary antibody, mean fluorescence against concentration.
Source text: The cells were washed and CD138-bound antibody or conjugates were detected using a fluorescence-labeled secondary antibody in FACS analysis. The mean fluorescence measured in these experiments was plotted against the antibody concentration.
In assay [3] the target is T2, Soluble CD138 antigen from U-266 cell culture supernatant, biotinylated (human, UniProt P18827 23-245, limits assumed, biotinylated on primary amino groups with EZ-Link Sulfo-NHS-LC-Biotin).
T2 construct: Captured on a streptavidin SENSOR CHIP SA for the BIACORE assay; Soluble (shed) form; also called bCD138; biotinylated CD138
T2 sequence (looked up): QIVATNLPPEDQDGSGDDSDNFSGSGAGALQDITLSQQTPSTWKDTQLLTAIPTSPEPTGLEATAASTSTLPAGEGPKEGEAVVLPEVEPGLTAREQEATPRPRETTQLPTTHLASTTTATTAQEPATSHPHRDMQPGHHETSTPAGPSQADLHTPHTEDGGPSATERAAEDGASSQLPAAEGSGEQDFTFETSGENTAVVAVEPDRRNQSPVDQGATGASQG
In words: BIACORE C, biotinylated soluble CD138 on SA chip, conjugate as analyte; single experiment. In general terms: Surface plasmon resonance follows binding to a sensor surface in real time, without labels.

Assay [4] addresses T2, Soluble CD138 antigen from U-266 cell …. In words: BIACORE C, biotinylated soluble CD138 on SA chip, conjugate as analyte; mean of three experiments.

Where “and” joins values, the source holds several entries; their conditions need not be identical. Equal values may be shown once.

The values that follow come from patent publication US20110123554A1 (BIOTEST, published 2011).

B1: nBT062-SPDB-DM4 (antibody, human IgG4, kappa, V domains shown)
VH: QVQLQQSGSELMMPGASVKISCKATGYTFSNYWIEWVKQRPGHGLEWIGEILPGTGRTIYNEKFKGKATFTADISSNTVQMQLSSLTSEDSAVYYCARRDYYGNFYYAMDYWGQGTSVTVSS
VL: DIQMTQSTSSLSASLGDRVTISCSASQGINNYLNWYQQKPDGTVELLIYYTSTLQSGVPSRFSGSGSGTDYSLTISNLEPEDIGTYYCQQYSKLPRTFGGGTKLEIKR
modifications: maytansinoid DM4 linked by disulfide bond through SPDB linker; residues carrying the drug not stated
Regarding B1, the “Sensitivity IC50 (nM), cell line NCI-H929 (MM)” value in assay [1] came to 0.38 nM.

B2: nBT062-SMCC-DM1 (antibody, human IgG4, kappa, V domains shown)
VH: B1 VH
VL: B1 VL
modifications: maytansinoid DM1 linked through non-cleavable SMCC linker; residues carrying the drug not stated
In general, EC50 (read off the curve) refers to the concentration that produces a half-maximal response. As to B2, the “EC50 (read off the curve)” value in assay [2] was roughly 1 nM.

B3: nBT062-SPP-DM1 (antibody, human IgG4, kappa, V domains shown)
VH: B1 VH
VL: B1 VL
modifications: maytansinoid DM1 linked through SPP linker; residues carrying the drug not stated
notes: an average of 3.5 DM1 per antibody is stated for nBT062-DM1 conjugates
Regarding B3, the “EC50 (read off the curve)” value in assay [2] was roughly 1 nM.

B4: nBT062 (antibody, human IgG4, kappa, V domains shown)
VH: B1 VH
VL: B1 VL
notes: also called cB-B4; chimeric B-B4
For the molecule B4, the “EC50 (read off the curve)” value in assay [2] was roughly 1 nM.

B5: B-B4-SPP-DM1 (antibody, V domains shown)
VH: B1 VH
VL: DIQMTQSTSSLSASLGDRVTISCSASQGINNYLNWYQQKPDGTVELLIYYTSTLQSGVPSRFSGSGSGTDYSLTISNLEPEDIGTYYCQQYSKLPRTFGGGTKLEIK
modifications: maytansinoid DM1 linked through SPP linker; residues carrying the drug not stated
notes: Variable domains as for B-B4 (see its note)
For orientation: Kd means a measure of binding affinity in units of concentration. High values mean a looser complex, low ones a tighter complex. As to B5, the Kd was 2.6 nM and 2.7 nM in assay [3]; 2.6 nM in assay [4].
